Patent US20190083616A1 (UNIVERSITY OF TENESSEE RESEARCH FOUNDATION, published 2019)

T1: peptope p66 (p5+14 - SVTVVT linker - 11-1F4 12-mer epitope KHYAAFPENLLI)
T1 construct: also called peptide p66; 11-1F4 peptope
T1 peptide: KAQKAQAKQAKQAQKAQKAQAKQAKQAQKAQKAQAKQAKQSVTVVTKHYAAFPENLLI


Key:
[1] = molecular target: Vκ4Len(1-22) peptide (UniProt P06312); assay: EuLISA, peptide-coated wells, mAb titrated from 100 nM
[2] = molecular target: T1, peptope p66 (p5+14 - SVTVVT linker - …); assay: EuLISA: rVλ6Wil fibrils on the plate, p66 added and washed, murine 11-1F4 titrated 1:2 from 100 nM; 11-1F4 also binds the fibrils themselves at high concentration (FIG. 10)

EC50 [1] [nM]	EC50 (read off the curve) [2] [nM]	Molecule
0.5	–	murine monoclonal antibody 11-1F4
–	~0.8	murine monoclonal antibody 11-1F4 (antibody, V domains shown) VH: QVQLKESGPGLVAPSQSLSITCTVSGFSLSSYGVSWVRQPPGKGLEWLGVIWGDGSTNYHPNLMSRLSISKDISKSQVLFKLNSLQTDDTATYYCVTLDYWGQGTSVTVSS VL: DVVMTQTPLSLPVSLGDQASISCRSSQSLVHRNGNTYLHWYLQKPGQSPKLLIYKVSNRFSGVPDRFSGSGSGTDFTLKISRVEAEDLGLYFCFQTTYVPNTFGGGTKLEIK
